Assay [1] addresses cynomolgus monkey GPC3 on SK-HEP-1-cmGPC3 cells (cynomolgus monkey). Briefly: flow cytometry on SK-HEP-1-cmGPC3 cells, PE anti-mouse IgG Fc. For orientation: Flow cytometry measures light scatter and fluorescence of single cells or particles in a stream.
Assay [2] addresses mouse GPC3 on SK-HEP-1-muGPC3 cells (mouse) (UniProt Q8CFZ4). Briefly: flow cytometry on SK-HEP-1-muGPC3 cells, PE anti-mouse IgG Fc.
Assay [3] addresses human GPC3 on SK-HEP-1-huGPC3 cells (human) (UniProt P51654). Kind of assay: flow cytometry on SK-HEP-1-huGPC3 cells, PE anti-mouse IgG Fc.

Sequence of mouse GPC3 on SK-HEP-1-muGPC3 cells (mouse) (Q8CFZ4 25-553 limits assumed): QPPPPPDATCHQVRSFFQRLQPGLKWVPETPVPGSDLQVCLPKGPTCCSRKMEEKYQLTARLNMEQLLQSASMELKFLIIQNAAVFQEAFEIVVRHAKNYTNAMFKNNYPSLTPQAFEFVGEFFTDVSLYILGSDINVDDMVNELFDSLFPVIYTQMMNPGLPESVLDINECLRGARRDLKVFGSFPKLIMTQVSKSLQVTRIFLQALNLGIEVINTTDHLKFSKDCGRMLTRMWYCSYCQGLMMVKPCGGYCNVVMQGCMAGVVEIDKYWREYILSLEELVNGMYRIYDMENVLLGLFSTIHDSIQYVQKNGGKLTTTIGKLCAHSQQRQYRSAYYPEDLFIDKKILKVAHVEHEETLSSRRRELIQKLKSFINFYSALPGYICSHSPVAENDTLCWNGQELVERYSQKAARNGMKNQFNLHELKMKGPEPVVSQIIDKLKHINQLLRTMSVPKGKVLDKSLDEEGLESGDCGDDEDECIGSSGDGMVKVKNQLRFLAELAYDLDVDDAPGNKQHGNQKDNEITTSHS

Regarding ISOTYPE (antibody), the results for the Positive population, % in assay [1], in assay [2] and in assay [3] were 0.43%, 0.91% and 0.85%, respectively.

The record behind these values is US20230088461A1.
